# Patent US20040038876A1
# Biological target: Ptc-1
# Experiment: Ptc-1 binding assay, format not described
row,Substance,Ptc binding
1,"mutant 22 (Shh C1II/A169C + S154C), NEM-modified (from UniProt Q15465 25-197) (ligand)",8.3 nM
2,"mutant 25 (Shh C1II/A169C + S133C), NEM-modified (from UniProt Q15465 25-197) (ligand)",0.4 nM
3,"mutant 20 (Shh C1II/A169C + N68C), NEM-modified (from UniProt Q15465 25-197) (ligand)",2 nM
4,"Shh C1II/A169C, NEM-modified (from UniProt Q15465 25-197) (ligand)",0.4 nM
5,"mutant 19 (Shh C1II/A169C + Y57C), 5 K PEG (from UniProt Q15465 25-197) (ligand)",3 nM
6,"Shh C1II/A169C, 5 K PEG (from UniProt Q15465 25-197) (ligand)",1 nM
7,"mutant 25 (Shh C1II/A169C + S133C), 5 K PEG (from UniProt Q15465 25-197) (ligand)",33 nM
8,"wild type Shh, 5 K PEG (from UniProt Q15465 24-197) (ligand)",42 nM
9,"mutant 18 (Shh C1II/A169C + N46C), 5 K PEG (from UniProt Q15465 25-197) (ligand)",2 nM
10,"mutant 24 (Shh C1II/A169C + S112C), 5 K PEG (from UniProt Q15465 25-197) (ligand)",8 nM
11,"wild type Shh, NEM-modified (from UniProt Q15465 24-197) (ligand)",1.4 nM
12,"mutant 22 (Shh C1II/A169C + S154C), unmodified (from UniProt Q15465 25-197) (ligand)",3.9 nM
13,"mutant 21 (Shh C1II/A169C + N92C), 5 K PEG (from UniProt Q15465 25-197) (ligand)",35 nM
14,"mutant 17 (Shh C1II/A169C + N27C), NEM-modified (from UniProt Q15465 25-197) (ligand)",0.3 nM
15,"mutant 22 (Shh C1II/A169C + S154C), 5 K PEG (from UniProt Q15465 25-197) (ligand)",85 nM
16,"mutant 20 (Shh C1II/A169C + N68C), unmodified (from UniProt Q15465 25-197) (ligand)",3 nM
17,"mutant 19 (Shh C1II/A169C + Y57C), NEM-modified (from UniProt Q15465 25-197) (ligand)",1 nM
18,"mutant 24 (Shh C1II/A169C + S112C), NEM-modified (from UniProt Q15465 25-197) (ligand)",0.6 nM
19,"mutant 44 (Shh C1II/A169C + E113C), NEM-modified (from UniProt Q15465 25-197) (ligand)",0.5 nM
20,"Shh C1II/A169C, unmodified (from UniProt Q15465 25-197) (ligand)",1.1 nM
21,"mutant 44 (Shh C1II/A169C + E113C), unmodified (from UniProt Q15465 25-197) (ligand)",2.3 nM
22,"mutant 25 (Shh C1II/A169C + S133C), unmodified (from UniProt Q15465 25-197) (ligand)",3.7 nM
23,"mutant 18 (Shh C1II/A169C + N46C), NEM-modified (from UniProt Q15465 25-197) (ligand)",2 nM
24,"mutant 21 (Shh C1II/A169C + N92C), NEM-modified (from UniProt Q15465 25-197) (ligand)",0.3 nM
25,"mutant 20 (Shh C1II/A169C + N68C), 5 K PEG (from UniProt Q15465 25-197) (ligand)",3 nM
26,"mutant 44 (Shh C1II/A169C + E113C), 5 K PEG (from UniProt Q15465 25-197) (ligand)",12 nM
27,"wild type Shh, unmodified (from UniProt Q15465 24-197) (ligand)",2.4 nM
28,"mutant 17 (Shh C1II/A169C + N27C), unmodified (from UniProt Q15465 25-197) (ligand)",1.3 nM
29,"mutant 17 (Shh C1II/A169C + N27C), 5 K PEG (from UniProt Q15465 25-197) (ligand)",32 nM
